Values quoted from earlier work as cited in PMC10742151.
Read-outs that look alike come from different tables or passages of the source.

What was measured:
[1] = biological target: CA125 (ovarian cancer biomarker antigen) (UniProt Q8WXI7); details: AFM chip (DSP-activated APTES mica) with immobilized aptamer incubated in CA125 solution, then washed with 0.01% Emulgen 913; buffer, salt, pH and temperature …
[2] = biological target: CA125 (ovarian cancer biomarker antigen) (UniProt Q8WXI7); details: AFM chip (DSP-activated APTES mica) with immobilized aptamer incubated in CA125 solution, then washed with 0.01% Emulgen 913; buffer, salt, pH and temperature …; remark: listed apart in the source

## apta#3 (ATW0055, BasePair Biotechnologies)
[1]
  Kd: 33.8 nM

## TAGGGAAGAGAAGGACATATGATGATCAACAACACAAGGGGGGGGGTATCTAGTTGACTAGTACATGACCACTTGA [apta#2 (apta#2.43)]
[2]
  Kd: 239 nM

## TAGGGAAGAGAAGGACATATGATTTTAGGGAAGAGAAGGACTTTTATGCCGCCTTGACTAGTACATGACCACTTGA [apta#1 (apta#2.26)]
[2]
  Kd: 166 nM
